Tests used:
Assay in all cases: ITC
[1] = target: PmPexRD54 AIM peptide (Phytophthora mirabilis)
[2] = target: MjATG8-I, recombinant protein for ITC (Mirabilis jalapa)
[3] = target: MjATG8-III, recombinant protein for ITC (Mirabilis jalapa)

B1: potato ATG8-2.2 (StATG8-2.2), protein for ITC (natural protein)
chain: MAKSSFKLEHPLERRQAEAARIREKYPDRIPVIVEKAERSDIPDIDKKKYLVPADLTVGQFVYVVRKRIKLSAEKAIFIFVKNILPPTAAMMSAIYEEHKDEDGFLYMTYSGENTFG
[1]
  Kd: 4200 µM

B2: PiPexRD54 AIM peptide (peptide)
chain: KPLDFDWEIV
[2]
  Kd: 0.21 µM
[3]
  Kd: 0.12 µM

Reference: article PMC9642902 (2022)
